In assay [1] the target is Flag-tagged human melanocortin-3 receptor (MC3R) on HEK293T cells (human) (UniProt P41968).
For assay [2], the target named is Flag-tagged human melanocortin-5 receptor (MC5R) on HEK293T cells (human) (UniProt P33032).

cAMP signaling (GloSensor), HEK293 cells with human MC3R, EC50 and cAMP signaling (GloSensor), HEK293 cells with human MC5R, EC50 data for one substance are collected here from PMC11445563.

Chain of UniProt P33032 (P33032 whole entry): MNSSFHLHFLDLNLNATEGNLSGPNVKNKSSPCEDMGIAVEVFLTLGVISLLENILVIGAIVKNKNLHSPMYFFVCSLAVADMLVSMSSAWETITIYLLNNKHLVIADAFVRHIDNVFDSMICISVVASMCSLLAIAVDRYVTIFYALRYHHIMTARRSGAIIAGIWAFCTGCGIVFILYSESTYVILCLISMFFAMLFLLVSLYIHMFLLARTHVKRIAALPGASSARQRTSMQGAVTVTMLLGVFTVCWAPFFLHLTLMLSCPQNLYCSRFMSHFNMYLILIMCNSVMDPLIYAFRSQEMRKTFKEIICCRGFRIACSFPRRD
Chain of UniProt P41968 (P41968 whole entry): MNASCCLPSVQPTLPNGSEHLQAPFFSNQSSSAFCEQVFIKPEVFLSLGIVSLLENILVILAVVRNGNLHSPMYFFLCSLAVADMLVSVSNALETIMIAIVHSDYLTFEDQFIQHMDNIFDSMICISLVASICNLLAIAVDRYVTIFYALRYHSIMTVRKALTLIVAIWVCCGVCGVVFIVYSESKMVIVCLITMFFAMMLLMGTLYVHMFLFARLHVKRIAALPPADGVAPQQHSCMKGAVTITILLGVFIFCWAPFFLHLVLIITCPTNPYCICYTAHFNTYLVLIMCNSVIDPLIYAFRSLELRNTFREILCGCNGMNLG

Consider setmelanotide (peptide), for which the cAMP signaling (GloSensor), HEK293 cells with human MC3R, EC50 in assay [1] was 2.1 nM. The substance also registered a cAMP signaling (GloSensor), HEK293 cells with human MC5R, EC50 in assay [2] of 451 nM.
